T1: wild-type adenovirus type 5 (Ad5) fiber protein (human adenovirus type 5, UniProt P11818 1-581)
T1 construct: also called type 5 fiber protein; recombinant Ad5 fiber
T1 sequence: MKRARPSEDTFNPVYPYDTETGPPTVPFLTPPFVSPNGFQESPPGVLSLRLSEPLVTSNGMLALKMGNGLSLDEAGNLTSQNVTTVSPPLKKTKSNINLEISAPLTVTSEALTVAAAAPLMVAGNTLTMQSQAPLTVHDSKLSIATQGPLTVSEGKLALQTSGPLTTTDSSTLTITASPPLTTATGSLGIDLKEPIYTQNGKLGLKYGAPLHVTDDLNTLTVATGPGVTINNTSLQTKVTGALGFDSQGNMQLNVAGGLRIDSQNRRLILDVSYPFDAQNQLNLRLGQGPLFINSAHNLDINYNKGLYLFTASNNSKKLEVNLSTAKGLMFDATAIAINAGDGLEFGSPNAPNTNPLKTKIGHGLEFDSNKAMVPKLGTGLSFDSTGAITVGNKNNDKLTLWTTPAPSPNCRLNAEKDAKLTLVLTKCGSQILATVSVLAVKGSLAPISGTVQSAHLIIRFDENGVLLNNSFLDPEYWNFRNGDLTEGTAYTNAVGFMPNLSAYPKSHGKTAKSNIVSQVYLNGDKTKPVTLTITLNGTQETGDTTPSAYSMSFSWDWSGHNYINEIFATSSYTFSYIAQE

B1: chimeric 5T3H fiber protein (Ad5 fiber tail and shaft with the Ad3 fiber knob) (other)
chain: MKRARPSEDTFNPVYPYDTETGPPTVPFLTPPFVSPNGFQESPPGVLSLRLSEPLVTSNGMLALKMGNGLSLDEAGNLTSQNVTTVSPPLKKTKSNINLEISAPLTVTSEALTVAAAAPLMVAGNTLTMQSQAPLTVHDSKLSIATQGPLTVSEGKLALQTSGPLTTTDSSTLTITASPPLTTATGSLGIDLKEPIYTQNGKLGLKYGAPLHVTDDLNTLTVATGPGVTINNTSLQTKVTGALGFDSQGNMQLNVAGGLRIDSQNRRLILDVSYPFDAQNQLNLRLGQGPLFINSAHNLDINYNKGLYLFTASNNSKKLEVNLSTAKGLMFDATAIAINAGDGLEFGSPNAPNTNPLKTKIGHGLEFDSNKAMVPKLGTGLSFDSTGAITVGNKNNDKLTLWTGPKPEANCIIEYGKQNPDSKLTLILVKNGGIVNGYVTLMGASDYVNTLFKNKNVSINVELYFDATGHILPDSSSLKTDLELKYKQTADFSARGFMPSTTAYPFVLPNAGTHNENYIFGQCYYKASDGALFPLEVTVMLNKRLPDSRTSYVMTFLWSLNAGLAPETTQATLITSPFTFSYIREDD
B2: Ad5 penton base protein (in the capsid of Ad5.βgal.ΔF / Ad5 vector particles) (other)
chain: MRRAAMYEEGPPPSYESVVSAAPVAAALGSPFDAPLDPPFVPPRYLRPTGGRNSIRYSELAPLFDTTRVYLVDNKSTDVASLNYQNDHSNFLTTVIQNNDYSPGEASTQTINLDDRSHWGGDLKTILHTNMPNVNEFMFTNKFKARVMVSRLPTKDNQVELKYEWVEFTLPEGNYSETMTIDLMNNAIVEHYLKVGRQNGVLESDIGVKFDTRNFRLGFDPVTGLVMPGVYTNEAFHPDIILLPGCGVDFTHSRLSNLLGIRKRQPFQEGFRITYDDLEGGNIPALLDVDAYQASLKDDTEQGGGGAGGSNSSGSGAEENSNAAAAAMQPVEDMNDHAIRGDTFATRAEEKRAEAEAAAEAAAPAAQPEVEKPQKKPVIKPLTEDSKKRSYNLISNDSTFTQYRSWYLAYNYGDPQTGIRSWTLLCTPDVTCGSEQVYWSLPDMMQDPVTFRSTRQISNFPVVGAELLPVHSKSFYNDQAVYSQLIRQFTSLTHVFNRFPENQILARPPAPTITTVSENVPALTDHGTLPLRNSIGGVQRVTITDARRRTCPYVYKALGIVSPRVLSSRTF
notes: The assays used whole virions; also called fiberless adenovector (penton base at the vertices)

Key:
Ad3 receptor = assay: cell-based or functional assay
[1] = molecular target: B1; assay: fiber-deleted vector grown in 644 cells
[2] = molecular target: T1, wild-type adenovirus type 5 (Ad5) fiber …; assay: Western blot of particles purified from 633 cells

B1
infection of EBV-transformed lymphoblastoid cell lines (X-gal stained cells) (Ad3 receptor): ≥ 10 fold

B2
binding result [1]: binds
binding result [2]: binds

Source: patent publication US20030157688A1 (Scripps Research, published 2003)
